Experimental findings from paper PMC5487423 are described below.

The test addresses P991_AMBCA, purified, C-terminal StrepII-8xHis tag (Amblyomma cajennense). The test can be described thus: BLI; Kd and koff determination: His-tagged evasin immobilised on Ni-NTA biosensor (OctetRed), chemokine dilutions from 300 nM to 0.4 nM, 30 °C, same buffer as the screen; reference protein subtracted; 1:1 model with global fit, or steady state; each experiment once. (In general: In BLI a coated tip is dipped into the sample, and binding shifts an interference pattern.)

For “CCL13 (from UniProt Q99616 17-98) (ligand)”, the dissociation half-life stood at 2.72 h.
